± gives the uncertainty stated by the source.

The series in a line: amyloid nucleation score (Sup35N fusion, yeast selection) (log enrichment); library NNK2; higher = more nucleation; inactive = no reads after selection. The method in brief: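 Libraries of peptides of 20 random codons fused to Sup35N were expressed in psi-negative yeast and induced 24 hours with 100 μM copper sulfate. Selection was 7 days at 30°C on medium lacking adenine and uracil, and plasmid inserts were Illumina-sequenced before and after selection. Nucleation score is the DiMSum log enrichment of output over input reads, centred on the mode score of non-aggregating sequences, and sequences with under 100 input reads were left out.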
In the case of ERIFGFI, the amyloid nucleation score is -1.45 ± 0.55. The result for FLVHCNILALNTCHLVYL reads 5.07 ± 0.089; that for SFAHEDWHTLFLL, -1.32 ± 0.75; that for YEDSGRRKLLNGP, -0.381 ± 1.1. Under QHLLLCAAM stands 0.399 ± 0.74. FGSIFNSYVNEWRSLLCNID: the amyloid nucleation score was -1.67 ± 0.39. The result for LSKGTPSQSMMSSLLSINTL reads -0.159 ± 1; that for EYSGLDVTDCQDT, 0.44 ± 0.36; that for ILASCTSRCFESEVRGTSFA, 0.568 ± 0.39. Under CDKFFLDF stands -1.9 ± 0.48; under SWHPRKRWNVCERF, 0.273 ± 0.49; under DIYFGDQNDCLKR, -1.17 ± 0.64. Under WCKQGVGCDLGAMVELSKGG stands 1.22 ± 0.28. As to RCTRSR, the amyloid nucleation score amounted to 3.4 ± 0.12. Under SRLNNLRYLYYLTGFRSLMT stands “inactive”; under KWSIRVGPQWV, 3.43 ± 0.11. In turn, MRCNYLAEYRFQRG gave an amyloid nucleation score of -0.669 ± 0.44. Under KLWETRACFVTCR stands 0.362 ± 0.4; under SCLYSSRPSMLGTIYRRMRC, 0.163 ± 0.34; under IDLAHGWSSSH, 0.66 ± 0.57. Take KVSGRYVEEYDHFPTDLSSL: the amyloid nucleation score is -0.046 ± 0.54. The result for IIGGTYIWVCVRGPTGRFDG reads 9.373 ± 0.064; that for SHRFADILDCV, 0.518 ± 0.24. The result for IDVGI reads 0.106 ± 0.2. The result for YVTVTNGMI reads -0.447 ± 0.61.

ASHRVNGEVRYRRWSVLKRM displayed an amyloid nucleation score of 0.839 ± 0.24.

WNKWSGLVLYTLGKLSY returned an amyloid nucleation score of -0.648 ± 0.39.

Substance RISKRAHECLIMQG returned an amyloid nucleation score of -0.108 ± 1.1.

Turning to IITIIKF, the amyloid nucleation score came out at 7.164 ± 0.03.

For GVDFKVVTKSWIIYNYIIGM, the amyloid nucleation score was found to be 3.07 ± 0.064.

In the case of YFMTKETLHC, the amyloid nucleation score is -1.64 ± 0.54. The result for NFLWPCRIHVQGCIHISDTD reads 6.171 ± 0.045. In turn, NRWYKLRLYICYDLRIAVFN displayed an amyloid nucleation score of -1.58 ± 1.1. Under ERIHSSCNYTFAFLLGFMSV stands 0.053 ± 0.54; under WAIRPSRYYITAYAVELHCD, 9.114 ± 0.074; under SLTMYGSIEWLNNVSAILRH, 0.541 ± 0.66. The result for GIFYSRL reads -0.089 ± 0.61; that for TYMDNFFVSCGMLKQVYASV, -0.223 ± 0.16. The result for VLASWSDFKSRGRGNSSVSG reads 1.24 ± 0.33. The substance GNGWAMSVTKR returned an amyloid nucleation score of 0.571 ± 0.64. Substance HVLFIAKLDFALTEFLRMCE came in with an amyloid nucleation score of 0.735 ± 0.19. Under CIMCGALEIGFGIIRGWEDF stands 9.421 ± 0.067; under NLGYYTG, -0.868 ± 1.1.

Regarding RTARPILDPC, the amyloid nucleation score result is “inactive”. The result for ATVRFWWKFVYACGMAWWWV reads 0.001 ± 0.55; that for LVILAGTVRIVRHGLVALQL, 0.592 ± 0.22; that for LLIRYSGFFCAPALTIPCGS, 5.12 ± 0.078.

FVLCLDLHDESQERWETIRR came in with an amyloid nucleation score of 0.925 ± 0.67.

PGYVAWRIFFFGPVI showed an amyloid nucleation score of 0.007 ± 1.1. In turn, YTYTQTR yielded an amyloid nucleation score of 0.25 ± 0.48. The result for VCYMGTRCGWNSRARVFWGS reads 2.69 ± 0.11; that for IDMYRRQYDQSQIKCNFSS, -0.087 ± 0.45; that for MCLYVRLWFMSPVSLDSSAL, -0.512 ± 0.55. The result for GKRVLRWTNWMAR reads 1.83 ± 0.29.

NSTLRSLYTVFFIRMLQMVG: the amyloid nucleation score was -0.753 ± 0.36. Consider IRMVDTCRVLKLSGEPFSRD, for which the amyloid nucleation score was -0.993 ± 0.78.

As to QEALLWTLNTLKKLSGRGST, the amyloid nucleation score is -1.44 ± 0.55. The result for STPPLILQSYV reads -1.17 ± 0.75; that for RSGWVEPSNITVIWVKMLVQ, 0.166 ± 0.55; that for MLNARELGETNKMLIVWVYL, 0.441 ± 0.22. Under DCLLGNSSPAV stands -0.594 ± 1.1; under VCYKIVKTSYNSFWDF, 4.39 ± 0.1. As to FNLLEVTRPPMRMMGMM, the amyloid nucleation score came out at 2.3 ± 0.076. Take FYRNLLTFFYGVSFN: the amyloid nucleation score was -0.807 ± 1. The result for FMRFARMCS reads 0.256 ± 0.16; that for IGLTLHMRRVVGAKSFKMPL, 0.29 ± 0.77. The result for IGGLISLGISSIERGYSSLI reads “inactive”. Take YRRQPS: the amyloid nucleation score stood at 0.174 ± 0.56. Under NTRCQFSTIGHFAASHDRRD stands 1.17 ± 0.21. For AAQIHYSKYNDDVYFSFEEK, the amyloid nucleation score was determined as 0.283 ± 0.37. The result for HNCFFITRCSKVLRAYFSTL reads -1.4 ± 1.1; that for MHVDVV, -0.352 ± 1; that for LSIAYFSSAWCFYL, 6.216 ± 0.038. In the case of TFWGTTY, the amyloid nucleation score result was “inactive”.

On to PVIYSF, for which the amyloid nucleation score came out at 7.115 ± 0.031. The result for FYLGYQTRCYSLIGDIE reads 3.51 ± 0.05.

Regarding WSEHQGQPNRERWWSAAGEG, the amyloid nucleation score was 0.984 ± 0.32. Under KVPMICSMEWRPLVSSHCTR stands -0.718 ± 0.76; under LALTWKAWTTHSPRKLAAVF, 0.353 ± 0.31.

For FHLLVVNFDTSLPLRQWKLE, the amyloid nucleation score worked out at 0.059 ± 0.3. The result for YTMASLS reads 1.74 ± 0.13; that for NELNLDKPSDLPLS, 0.844 ± 0.31; that for KLKSDLMNRTVGDLPVRARP, 5.105 ± 0.048. In turn, FGVNS registered an amyloid nucleation score of -0.021 ± 0.63. The result for VYEGSLCLAYERLTGMGFIK reads -0.382 ± 0.29; that for YVEFCFLTCSASGLAWSLRW, 0.053 ± 0.31; that for LGRNGASYLNDSCRIPNAGK, -0.562 ± 0.56. Under RNAQPLNGPRSPVSGTDWYS stands 0.092 ± 1.1; under IQASSLMVAKERFWGDLWWL, 4.34 ± 0.1. The result for SNLMISTCEQMGRCVGDDAV reads -0.067 ± 0.36; that for LSMDRESFINERWSSQRVMV, -0.02 ± 0.5. For HIRDTESTTLVRVRGCSSPK, the amyloid nucleation score is 0.07 ± 0.61. Under LQAVPIIANCSSTRTANISL stands “inactive”; under HGSFAIMP, -0.529 ± 0.45. Under VFYVTYTS stands 5.76 ± 0.074.

For FFRGSYTRAWH, the amyloid nucleation score amounted to 0.967 ± 0.29. NVHFFCWCFLNLCV registered an amyloid nucleation score of -0.558 ± 1. The result for NGWIYAYDLLLERTSQSWKI reads -0.472 ± 0.32. Regarding RSCPFAFGEGG, the amyloid nucleation score stood at 0.782 ± 0.55. Under IVFYVEVVLMAECLADVKRV stands 5.56 ± 0.081. The result for FKCNIYYSFRYGSI reads 7.18 ± 0.026; that for SVVGRYEYIILGTRAPGTSR, 0.272 ± 0.5; that for VKNFTPFRHILVITYNITFN, 1.9 ± 0.14.

In the case of VSHMNCLDMICHLWISQLVL, the amyloid nucleation score was found to be 1.65 ± 0.098.

As to VPKAWTVWAQVPINWSARQA, the amyloid nucleation score is 0.737 ± 0.62. Under GRYHIDSRKGKSNKSRGNIY stands “inactive”; under MLRPAAHDGVKASYVKFKI, 0.489 ± 0.45. Under LLWPVA stands 0.386 ± 0.46.

VYRNNL registered an amyloid nucleation score of -1.84 ± 1.1. Under VKGISWGLRFS stands “inactive”; under GMKSIDVL, -1.21 ± 0.36. The result for WQVYQFSCRAEGEDL reads 2.48 ± 0.12; that for FFVTAPIGMFSLD, -2.17 ± 0.44; that for CDSVLPRLLNYKYTKNK, 0.14 ± 0.63. The result for RKSYPRIYVHPSWKCVGDRY reads 0.066 ± 0.41; that for NAIRFLVMLVGTWF, 0.25 ± 0.24; that for IEPSHFNGNSASWV, -0.184 ± 0.63. KRYGAVHDVCMRVSFNASQV returned an amyloid nucleation score of 1.2 ± 0.32. The result for DRIAETSRYKRSENSLSLV reads 0.099 ± 0.53; that for ASNAFRSGYWQGERHERMRL, 1.07 ± 0.14. The result for YAFKRECWCHYHHHCVQMFW reads 0.49 ± 0.33; that for FCPMVLAFTSRGIATKNCGV, 0.566 ± 0.74; that for ESRIYYVKQYSCLSTLTMVR, -0.283 ± 0.35.

Turning to TKLYNDIFHNW, the amyloid nucleation score entry is “inactive”. The result for DSWFGRFYDEESSWCWAMVR reads 0.039 ± 0.36; that for CAPFVRDFINMVCRRMPNTN, 0.566 ± 0.66. The result for DHVLSFDSIVVWYLRIGGEE reads -0.656 ± 1.1; that for MFMTVRWNVAINLELFTVID, -0.34 ± 0.39; that for FMLVV, “inactive”. Under LRGYRGFPYCDLYFVCMLRN stands -1.06 ± 1.1; under STGSWTTVKLGREGAILHAL, -0.407 ± 0.45.

FLPYVIRRGWSCCPSGKWRN gave an amyloid nucleation score of 0.03 ± 0.55. Under RYALFSARIYSLYWLWFCIF stands “inactive”; under YLCAFVRWWYR, -0.029 ± 1.1. LCFKLMNSKSWMRIQTAWTL gave an amyloid nucleation score of 0.384 ± 0.34. Under ETGSRGAN stands 0.263 ± 0.25; under TFLWK, -0.349 ± 0.55; under EYYFSTELGGVFTLY, 1.18 ± 0.12. The substance ISRILRKYNVIVRSSSVSRG displayed an amyloid nucleation score of -1.06 ± 0.31. The result for SVWWSSNFINPPDFCNM reads -1.19 ± 1.1; that for NVRDMCLSACTSQWYYYFAV, 0.371 ± 0.37. The result for RYHSRAWAPYCTTHATVPEV reads 1.28 ± 0.29.

Values taken from the supplement of paper PMC12042874.
